Assay results as given in the supplement of paper PMC7125110.
This sample holds only a part of the variants without activity.

B1: glmS ribozyme (parent)
chain: AUAAAAGCGCCAGAACUACAGAAAUGUAGUUGACGAGGAGGAGGUUUAUCGAAUUUUCGGCGGAUGCCUCCAAA

Assays:
Settings in all cases: with glucosamine-6-phosphate
glucosamine-6-phosphate [1] = variants of: B1; assay: self-cleavage kobs at 40 uM GlcN6P; higher = faster cleavage; RNA array
In short: (§1)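 Barcoded glmS ribozyme variants on sequenced MiSeq chips were transcribed in situ by E. coli RNA polymerase and tracked through a hybridised Cy3 probe at 37 °C. Glucosamine-6-phosphate (40 μM to 10 mM) in HEPES/KCl/Mg(OAc)2 buffer was flowed in, and tiles were imaged over ~14 h. Signals were normalised to baseline and to non-cleaving reference variants; per-tile medians were fit to one- or two-exponential decays to give kobs. kcat and KM came from weighted Michaelis–Menten fits across concentrations.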

glucosamine-6-phosphate [2] = variants of: B1; assay: self-cleavage kobs at 160 uM GlcN6P; higher = faster cleavage; RNA array
In short: as §1

glucosamine-6-phosphate [3] = variants of: B1; assay: self-cleavage kobs at 640 uM GlcN6P; higher = faster cleavage; RNA array
In short: as §1

glucosamine-6-phosphate [4] = variants of: B1; assay: self-cleavage kobs at 2500 uM GlcN6P; higher = faster cleavage; RNA array
In short: as §1

glucosamine-6-phosphate [5] = variants of: B1; assay: self-cleavage kobs at 10000 uM GlcN6P; higher = faster cleavage; RNA array
In short: as §1

AUAAAAGCCCCAGGACUACAGAAAUGUAGUUGACGAGGAGGAGGUUUAUCGAAUUUUCGGCGGAUGCCUCCAAA
< 1e-05 s⁻¹: self-cleavage kobs at 40 uM GlcN6P (glucosamine-6-phosphate [1]) | self-cleavage kobs at 160 uM GlcN6P (glucosamine-6-phosphate [2]) | self-cleavage kobs at 640 uM GlcN6P (glucosamine-6-phosphate [3]) | self-cleavage kobs at 2500 uM GlcN6P (glucosamine-6-phosphate [4]) | self-cleavage kobs at 10000 uM GlcN6P (glucosamine-6-phosphate [5])

AUAAAAGCCCCAGAACUACAGAAAUGUAGUUGACGAGGAGGAGGUUUCUCGAAUUUUCGGCGGAUGCCUCCAAA
< 1e-05 s⁻¹: self-cleavage kobs at 40 uM GlcN6P (glucosamine-6-phosphate [1]) | self-cleavage kobs at 640 uM GlcN6P (glucosamine-6-phosphate [3]) | self-cleavage kobs at 2500 uM GlcN6P (glucosamine-6-phosphate [4])

AUAAAAGCCCCAGAACUACAGAAAUGUAGUUGACGAGGAGGAGGUUUAUCGUAUUUUCGGCGGAUGCCUCCAAA
< 1e-05 s⁻¹: self-cleavage kobs at 40 uM GlcN6P (glucosamine-6-phosphate [1]) | self-cleavage kobs at 160 uM GlcN6P (glucosamine-6-phosphate [2]) | self-cleavage kobs at 640 uM GlcN6P (glucosamine-6-phosphate [3]) | self-cleavage kobs at 2500 uM GlcN6P (glucosamine-6-phosphate [4]) | self-cleavage kobs at 10000 uM GlcN6P (glucosamine-6-phosphate [5])

AUAAAAGCCCCAGAACUACAGAAAUGUAGUUGACGUGGAGGAGGUUUAUCGAAUUUUCGGCGGAUGCCUCCAAA
< 1e-05 s⁻¹: self-cleavage kobs at 40 uM GlcN6P (glucosamine-6-phosphate [1]) | self-cleavage kobs at 640 uM GlcN6P (glucosamine-6-phosphate [3]) | self-cleavage kobs at 2500 uM GlcN6P (glucosamine-6-phosphate [4])

AUAAAAGCCCCAGAACUACAGAAAUGUAGUUGACGGGGAGGAGGUUUAUCGAAUUUUCGGCGGAUGCCUCCAAA
< 1e-05 s⁻¹: self-cleavage kobs at 40 uM GlcN6P (glucosamine-6-phosphate [1]) | self-cleavage kobs at 640 uM GlcN6P (glucosamine-6-phosphate [3]) | self-cleavage kobs at 10000 uM GlcN6P (glucosamine-6-phosphate [5])

AUAAAAGCCCCAGAACUACAGAAAUGUAGUUGAGGAGGAGGAGGUUUAUCGAAUUUUCGGCGGAUGCCUCCAAA
< 1e-05 s⁻¹: self-cleavage kobs at 40 uM GlcN6P (glucosamine-6-phosphate [1]) | self-cleavage kobs at 160 uM GlcN6P (glucosamine-6-phosphate [2]) | self-cleavage kobs at 640 uM GlcN6P (glucosamine-6-phosphate [3]) | self-cleavage kobs at 2500 uM GlcN6P (glucosamine-6-phosphate [4]) | self-cleavage kobs at 10000 uM GlcN6P (glucosamine-6-phosphate [5])

AUAAAAGCCACAGAACUACAGAAAUGUAGUUGACGAGGAGGAGGUUUAUCGCAUUUUCGGUGGAUGCCUCCAAA
< 1e-05 s⁻¹: self-cleavage kobs at 40 uM GlcN6P (glucosamine-6-phosphate [1]) | self-cleavage kobs at 10000 uM GlcN6P (glucosamine-6-phosphate [5])

AUAAAAGCACCAGAACUACAGAAAUGUAGUUGACGAGGAGGAGGUUUAUCGAAUUUGCGGCGGAUGCCUCCAAA
< 1e-05 s⁻¹: self-cleavage kobs at 40 uM GlcN6P (glucosamine-6-phosphate [1]) | self-cleavage kobs at 160 uM GlcN6P (glucosamine-6-phosphate [2]) | self-cleavage kobs at 640 uM GlcN6P (glucosamine-6-phosphate [3]) | self-cleavage kobs at 2500 uM GlcN6P (glucosamine-6-phosphate [4])

AUAAAAGCACCAGAACUACAGAAAUGUAGUUGACGAGGAGGAGGUUUAUCGAAUUUUCGACGGAUGCCUCCAAA
< 1e-05 s⁻¹: self-cleavage kobs at 40 uM GlcN6P (glucosamine-6-phosphate [1]) | self-cleavage kobs at 640 uM GlcN6P (glucosamine-6-phosphate [3])

AUAAAAGCACCAGAACUACAGAAAUGUAGUGGACGAGGAGGAGGUUUAUCGAAUUUUCGGCGGAUGCGUCCAAA
< 1e-05 s⁻¹: self-cleavage kobs at 40 uM GlcN6P (glucosamine-6-phosphate [1]) | self-cleavage kobs at 640 uM GlcN6P (glucosamine-6-phosphate [3])

AUAAAAGCCCCAGAUCUACAGAAAUGUAGUUGACGAGGAGGAGGUUUAUCGAAUUUUCGGCGGAUGCCUCCAAA
< 1e-05 s⁻¹: self-cleavage kobs at 40 uM GlcN6P (glucosamine-6-phosphate [1]) | self-cleavage kobs at 160 uM GlcN6P (glucosamine-6-phosphate [2]) | self-cleavage kobs at 640 uM GlcN6P (glucosamine-6-phosphate [3]) | self-cleavage kobs at 2500 uM GlcN6P (glucosamine-6-phosphate [4]) | self-cleavage kobs at 10000 uM GlcN6P (glucosamine-6-phosphate [5])

AUAAAAGCACCAGAACUACAGAAAUGUAGUUGACGAGGAGGAGGUUGUUCGAAUUUUCGGCGGAUGCCUCCAAA
< 1e-05 s⁻¹: self-cleavage kobs at 40 uM GlcN6P (glucosamine-6-phosphate [1])

AUAAAAGCACCAGAACUACAGAAAUGUAGUUGACGAGGAGGAGGUUUAUCGAAUUUUCGGCGCAUGCCUCCAAA
< 1e-05 s⁻¹: self-cleavage kobs at 40 uM GlcN6P (glucosamine-6-phosphate [1]) | self-cleavage kobs at 10000 uM GlcN6P (glucosamine-6-phosphate [5])

AUAAAAGCCCGAGAACUACAGAAAUGUAGUUGACGAAAAGGAGGUUUAUCGAACUUUCGGCGGGUGCCUCCAAA
< 1e-05 s⁻¹: self-cleavage kobs at 40 uM GlcN6P (glucosamine-6-phosphate [1])

AUAAAAGCACCAGAACUACAGAAAUGUAGUUGACGAGGAGGAGGUUUAUCGAAUUUUCUGCGGUCGCCUCCAAA
< 1e-05 s⁻¹: self-cleavage kobs at 40 uM GlcN6P (glucosamine-6-phosphate [1]) | self-cleavage kobs at 10000 uM GlcN6P (glucosamine-6-phosphate [5])

AUAAAAGCCCCAGAACUACAGAAAUGUAGUUGACGAGGAGGUGGUUUAUCGAAUUUUCGGCGGAUGCCUCCAAA
< 1e-05 s⁻¹: self-cleavage kobs at 40 uM GlcN6P (glucosamine-6-phosphate [1]) | self-cleavage kobs at 160 uM GlcN6P (glucosamine-6-phosphate [2]) | self-cleavage kobs at 2500 uM GlcN6P (glucosamine-6-phosphate [4])

AUAAAAGCCCCAGAACUACAGAAAUGUAGUUGACGAGGGGGAGGUUUAUCGAAUUUUCGGCGGAUGCCUCCAAA
< 1e-05 s⁻¹: self-cleavage kobs at 40 uM GlcN6P (glucosamine-6-phosphate [1]) | self-cleavage kobs at 2500 uM GlcN6P (glucosamine-6-phosphate [4]) | self-cleavage kobs at 10000 uM GlcN6P (glucosamine-6-phosphate [5])

AUAAAAGCCCCAGAACUACAGAAAUGUAGUUGACGAGGGUGAGGUUUACCGAAUUUUCGGCGGAUGCCUCCAAA
< 1e-05 s⁻¹: self-cleavage kobs at 40 uM GlcN6P (glucosamine-6-phosphate [1]) | self-cleavage kobs at 10000 uM GlcN6P (glucosamine-6-phosphate [5])

AUAAAAGCCCCAGAACUACAGAAAUGUAGUUGACGAGGCGGAGCUUUAUCGAAUUUUCGGCGGAUGCCUCCAAA
< 1e-05 s⁻¹: self-cleavage kobs at 40 uM GlcN6P (glucosamine-6-phosphate [1])

AUAAAAGCCCCAGAACUACAGAAAUGUAGUUGUCGAGGAGGAGGUUUAUCGAAUUUUCGGCGGAUGCCUCCAAA
< 1e-05 s⁻¹: self-cleavage kobs at 40 uM GlcN6P (glucosamine-6-phosphate [1]) | self-cleavage kobs at 160 uM GlcN6P (glucosamine-6-phosphate [2]) | self-cleavage kobs at 640 uM GlcN6P (glucosamine-6-phosphate [3]) | self-cleavage kobs at 2500 uM GlcN6P (glucosamine-6-phosphate [4]) | self-cleavage kobs at 10000 uM GlcN6P (glucosamine-6-phosphate [5])

AUAAAAGCCCCGGAACUACAGAAAUGUAGUUGACGACGAGGAGGUUCAUCGAAUUUUCGACGGAUGCCUCUAAA
< 1e-05 s⁻¹: self-cleavage kobs at 40 uM GlcN6P (glucosamine-6-phosphate [1]) | self-cleavage kobs at 10000 uM GlcN6P (glucosamine-6-phosphate [5])

AUAAAAGCCGCAGAACUACAGAAAUGUAGUUGACGAGGAGGAGGUUUAUCGAAUUUUCGGCGGAUGCCUCCAAA
< 1e-05 s⁻¹: self-cleavage kobs at 40 uM GlcN6P (glucosamine-6-phosphate [1]) | self-cleavage kobs at 160 uM GlcN6P (glucosamine-6-phosphate [2]) | self-cleavage kobs at 640 uM GlcN6P (glucosamine-6-phosphate [3]) | self-cleavage kobs at 2500 uM GlcN6P (glucosamine-6-phosphate [4]) | self-cleavage kobs at 10000 uM GlcN6P (glucosamine-6-phosphate [5])

AUAAAAGCACCAGAACUACAGAAAUGUAGUUGACGAGGAGGAGGUUUAUCGAAUUUUCGGCAGAUGCCUCCAAA
< 1e-05 s⁻¹: self-cleavage kobs at 40 uM GlcN6P (glucosamine-6-phosphate [1]) | self-cleavage kobs at 160 uM GlcN6P (glucosamine-6-phosphate [2]) | self-cleavage kobs at 640 uM GlcN6P (glucosamine-6-phosphate [3])

AUAAAAGCCUCAGAACUACAGAAAUGUAGUUGACGAUGAGGAGGUUUAUCGAAUUUUCGGCGGAUGCCUCCAAA
< 1e-05 s⁻¹: self-cleavage kobs at 40 uM GlcN6P (glucosamine-6-phosphate [1]) | self-cleavage kobs at 640 uM GlcN6P (glucosamine-6-phosphate [3])

AUAAAAGCCCUAGAACUACAGAAAUGUAGUUGACGAGGAGGAGGUUUAUCGAAUUUUCGGCGGAUGCCUCCAAA
< 1e-05 s⁻¹: self-cleavage kobs at 40 uM GlcN6P (glucosamine-6-phosphate [1]) | self-cleavage kobs at 160 uM GlcN6P (glucosamine-6-phosphate [2]) | self-cleavage kobs at 640 uM GlcN6P (glucosamine-6-phosphate [3]) | self-cleavage kobs at 2500 uM GlcN6P (glucosamine-6-phosphate [4]) | self-cleavage kobs at 10000 uM GlcN6P (glucosamine-6-phosphate [5])
